Source: publication PMC8261802

Experiments:
[1] = biological target: PEDV/S(1–1320) + CMP + Tags (porcine epidemic diarrhea virus (PEDV), strain 83P-5 | chicken); experiment: SEC; Superose 6 increase 10/300 GL in 1 x PBS; markers thyroglobulin 669 kDa, ferritin 440 kDa, aldolase 158 kDa
[2] = biological target: PEDV/S(1–1320) + CMP + Tags (porcine epidemic diarrhea virus (PEDV), strain 83P-5 | chicken); experiment: native gel or EMSA; Blue-native PAGE, 3 to 12% Bis-Tris NativePAGE gel, 115 min at 150 V, CBB stain; purified S protein

Substance PEDV/S(1–1320) + CMP + Tags has a stoichiometry N [1] of 3 and a stoichiometry N [2] of 3.
